Measured values: paper PMC10853514, “Autoinhibition and activation of myosin VI revealed by its cryo-EM structure” (Nature Communications, 2024)

What was measured:
[1] = molecular target: T1, calmodulin (CaM), light chain of myosin VI (UniProt P0DP23 1-149); assay: cryo-EM structure; single-particle cryo-EM of myosin VI/CaM in PB, TB + AMPPNP and PB + ATP, the three datasets combined; autoinhibited state, 3.54 Å (4.14 Å map with the SAH-E); settings: both partners purified
T1 construct: calmodulin, the light chain of myosin VI; Two copies stand in the structure: CaM1 on Insert2 (with four Ca2+ ions) and CaM2 on the IQ motif; also called CaM1; CaM2; source: HEK293-F, co-transfected with myosin VI, co-purified

[2] = molecular target: T2, myosin VI motor domain (MD), aa 1-789 (human, UniProt Q9UM54-1 1-789); assay: SEC; analytical SEC at 16 °C in PB (20 mM Na2HPO4/NaH2PO4 pH 7.4, 60 mM NaCl, 1 mM EGTA, 2 mM DTT, 2 mM MgCl2); 3.0 μM of the MD and CBD1 proteins; settings: both partners purified
T2 construct: myosin VI, human, motor domain aa 1-789; The methods say that myosin VI or its mutants were co-transfected with CaM; also called the MD; source: HEK293-F (pCAG vector), purified

B1: human myosin VI heavy chain, full length, containing both the large-insertion (LI) and small-insertion (SI) regions (natural protein)
chain: MEDGKPVWAPHPTDGFQMGNIVDIGPDSLTIEPLNQKGKTFLALINQVFPAEEDSKKDVEDNCSLMYLNEATLLHNIKVRYSKDRIYTYVANILIAVNPYFDIPKIYSSEAIKSYQGKSLGTRPPHVFAIADKAFRDMKVLKMSQSIIVSGESGAGKTENTKFVLRYLTESYGTGQDIDDRIVEANPLLEAFGNAKTVRNNNSSRFGKFVEIHFNEKSSVVGGFVSHYLLEKSRICVQGKEERNYHIFYRLCAGASEDIREKLHLSSPDNFRYLNRGCTRYFANKETDKQILQNRKSPEYLKAGSMKDPLLDDHGDFIRMCTAMKKIGLDDEEKLDLFRVVAGVLHLGNIDFEEAGSTSGGCNLKNKSAQSLEYCAELLGLDQDDLRVSLTTRVMLTTAGGTKGTVIKVPLKVEQANNARDALAKTVYSHLFDHVVNRVNQCFPFETSSYFIGVLDIAGFEYFEHNSFEQFCINYCNEKLQQFFNERILKEEQELYQKEGLGVNEVHYVDNQDCIDLIEAKLVGILDILDEENRLPQPSDQHFTSAVHQKHKDHFRLTIPRKSKLAVHRNIRDDEGFIIRHFAGAVCYETTQFVEKNNDALHMSLESLICESRDKFIRELFESSTNNNKDTKQKAGKLSFISVGNKFKTQLNLLLDKLRSTGASFIRCIKPNLKMTSHHFEGAQILSQLQCSGMVSVLDLMQGGYPSRASFHELYNMYKKYMPDKLARLDPRLFCKALFKALGLNENDYKFGLTKVFFRPGKFAEFDQIMKSDPDHLAELVKRVNHWLTCSRWKKVQWCSLSVIKLKNKIKYRAEACIKMQKTIRMWLCKRRHKPRIDGLVKVGTLKKRLDKFNEVVSVLKDGKPEMNKQIKNLEISIDTLMAKIKSTMMTQEQIQKEYDALVKSSEELLSALQKKKQQEEEAERLRRIQEEMEKERKRREEDEKRRRKEEEERRMKLEMEAKRKQEEEERKKREDDEKRIQAEVEAQLARQKEEESQQQAVLEQERRDRELALRIAQSEAELISDEAQADLALRRNDGTRPKMTPEQMAKEMSEFLSRGPAVLATKAAAGTKKYDLSKWKYAELRDTINTSCDIELLAACREEFHRRLKVYHAWKSKNKKRNTETEQRAPKSVTDYDFAPFLNNSPQQNPAAQIPARQREIEMNRQQRFFRIPFIRPADQYKDPQSKKKGWWYAHFDGPWIARQMELHPDKPPILLVAGKDDMEMCELNLEETGLTRKRGAEILPRQFEEIWERCGGIQYLQNAIESRQARPTYATAMLQSLLK
notes: myosin VI, human, full length with both the alternatively spliced LI and SI regions; codon-optimised synthetic gene; also called the heavy chain; source: HEK293-F, co-transfected with CaM, purified (Flag resin, size exclusion)
- binding result [1]: binds

B2: myosin VI cargo-binding domain 1 (CBD1), aa 1072-1158 (domain or fragment, human, UniProt Q9UM54-1 1072-1158, looked up)
chain: TKKYDLSKWKYAELRDTINTSCDIELLAACREEFHRRLKVYHAWKSKNKKRNTETEQRAPKSVTDYDFAPFLNNSPQQNPAAQIPAR
notes: myosin VI, human, CBD1 aa 1072-1158, numbers of the form with LI and SI; also called the CBD1; source: E. coli BL21(DE3), purified (Ni-NTA, size exclusion)
- binding result [2]: binds
